Source: paper PMC9107400

How the values were obtained:
[1] = molecular target: N-terminal FLAG-tagged SMAD4 (UniProt Q13485); assay: co-IP; HEK293T cells transfected with FLAG-tagged SMAD4 (or its deletion constructs) and AR constructs, treated with DHT 10 nM and BMP7 50 ng/mL for 12 h; nuclear extracts incubated overnight at 4 °C with anti-FLAG or anti-AR antibody (IgG isotype as control) on protein G Dynabeads; Western blot for AR and SMAD4
[2] = molecular target: AR65Q (human) (UniProt P10275); assay: co-IP; cell-free ('in vitro pull-down'): FLAG-SMAD4 (TNT wheat germ) and GST-AR constructs (E. coli S30) in vitro translated, equal amounts mixed overnight at 4 °C, captured with anti-GST antibody on protein G Dynabeads, Western blot with anti-FLAG

| Substance | binding compared to wild type [1] [%] | binding compared to wild type [2] [%] |
| --- | --- | --- |
| AR100Q (from UniProt P10275 1-920) (natural protein) | 50 |  |
| FLAG-tagged SMAD4, in vitro translated (from UniProt Q13485 1-552) (natural protein) |  | 70 |
